Earlier results on one substance are cited in article PMC5590664.

The series concerns the target HIV-1 capsid protein (full-length) (Human immunodeficiency virus 1) (UniProt O93182).

Sequence of HIV-1 capsid protein (full-length) (O93182 133-363): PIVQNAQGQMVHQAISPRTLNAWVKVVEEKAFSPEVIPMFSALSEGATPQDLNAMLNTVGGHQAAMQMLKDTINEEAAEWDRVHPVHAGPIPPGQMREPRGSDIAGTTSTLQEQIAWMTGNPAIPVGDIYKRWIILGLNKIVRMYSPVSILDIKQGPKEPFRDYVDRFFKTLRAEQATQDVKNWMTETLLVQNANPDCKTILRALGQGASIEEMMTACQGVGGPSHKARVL

With “HIV-1 capsid protein (full-length) (from UniProt O93182)”, the Kd – broadly, the concentration at which binding is half-saturated – is 40 µM.
